Test results taken from PMC6158489.
“And” between values parts separate entries of the source, which are not always exact repeats. Equal entries are not always repeated.

System: VpsR (Vibrio cholerae)
Test: EMSA

In the case of PvpsL promoter fragment (-97 to +113), the Kd is reported as 2220 nM and 1660 nM.
